Source: article PMC7547722, “A versatile soluble siglec scaffold for sensitive and quantitative detection of glycan ligands” (Nature Communications, 2020)
“And” between values parts separate entries of the source, which are not always exact repeats. Identical values can stand only once.

How the values were obtained:
[1] = system: B-cells (CD19+), human splenocytes; test: Siglec-Fc binding to splenocytes, flow cytometry; assay type: cell-based; details: Suppl Fig 12; three replicate columns
Procedure: (§1) For human splenocytes, the sample was homogenized in media through a 40 µm filter (Corning) under sterile conditions. Samples were centrifuged at 300 rcf for 5 min. The resulting pellet from the spleen sample and whole human blood were treated with RBC lysis buffer (7 min) and centrifuged at 300 rcf and the RBC lysis was repeated twice more until no RBC remained in the pellet. Samples were treated with human Fc-receptor blocking agent (TruStain FX, Biolegend) in flow buffer (HBSS, 0.1% BSA, 5 mM EDTA). For analysis, the following cocktail was used: hSig8 (PerCP/Cy5.5, clone 7C9, Biolegend cat. no. 347108, 1:200), hCD123 (PE/Cy7, clone 6H6, Biolegend cat. no. 306010, 1:200), hCD19 (PE, clone SJ25C1, Biolegend cat. no. 363004, 1:200), hCD3 (FITC, BD Pharmingen cat. no. 555332, 1:50), hCD14 (BV605, clone M5E2, BD Horizon cat. no. 564056, 1:200), hCD15 (BUV395, clone HI98, BD Horizon cat. no. 563872, 1:200), hCD56 (BV510, clone NCAM16.2, BD Horizon cat. no. 563041, 1:200). For human peripheral blood samples, we additionally used hHLA-DR (APC-Cy7, clone L243, Biolegend cat. no. 307618, 1:200). Pre-complexed Siglec-Fc/Strep-Tactin-AF647 (described above) was added to the antibody cocktail, added to cells, and allowed to stain at 4 °C for 45 min. The cells were then centrifuged at 300 rcf for 5 min and resuspended in flow buffer containing 1 µg/mL propidium iodide prior to analysis by flow cytometry.
(§2) Flow cytometry was performed on a BD LSRFortessa™ X-20 cell analyzer using BD FACSDiva Software Version 8.0.1 and data was processed using FlowJo LLC. Version 9.9.6 and Graphpad Prism 8. The live, single cell populations were gated out with two gates to obtain the median fluorescence intensity (MFI), which indicates binding of the Siglec-Fc-secondary complex to the cell surface. Control cells that were incubated with Strep-Tactin-AF647 (0.55 μg/mL, 0.57 pmol) was used to determine the baseline fluorescence. Number of cells (# cells) plotted indicates percentage of max (% max).

[2] = system: NK cells (CD56+), human splenocytes; test: Siglec-Fc binding to splenocytes, flow cytometry; assay type: cell-based; details: Suppl Fig 12; three replicate columns
Procedure: as §1, §2

[3] = system: T-cells (CD3+), human splenocytes; test: Siglec-Fc binding to splenocytes, flow cytometry; assay type: cell-based; details: Suppl Fig 12; three replicate columns
Procedure: as §1, §2

[4] = system: monocytes (CD14+), human splenocytes; test: Siglec-Fc binding to splenocytes, flow cytometry; assay type: cell-based; details: Suppl Fig 12; three replicate columns
Procedure: as §1, §2

[5] = system: neutrophils (CD15+), human splenocytes; test: Siglec-Fc (CD22-Fc V1/V2, with or without Fc receptor block) binding to splenocytes, flow cytometry; assay type: cell-based; details: Suppl Fig 12; three replicate columns
Procedure: as §1, §2

A549 cells = test: Flow cytometry, pre-complexed Siglec-Fc binding; assay type: cell-based; details: Strep-Tactin-AF647, replicates
Procedure: (§3) Strep-Tactin-AF647 (0.55 μg/mL, 0.57 pmol), streptavidin (Biolegend), or anti-human igG1 (Biolegend) was added to Siglec supernatant (50 μL) or purified Siglec and allowed to sit at 4 °C for 15 min. After, the pre-complexed solution was added to cells in a 96-well U-bottom plate for 30 min at 4 °C. After, 200 μL of flow buffer (HBSS, 0.1% BSA, 5 mM EDTA) was added and the plate was spun down at 300 rcf for 5 min. The cells were resuspended in 200 μL of flow buffer and processed through the flow cytometer.
as §2

Jurkat cells = test: Flow cytometry, pre-complexed Siglec-Fc binding; assay type: cell-based; details: Strep-Tactin-AF647, replicates
Procedure: as §3, §2

K562 cells = test: Flow cytometry, pre-complexed Siglec-Fc binding; assay type: cell-based; details: Strep-Tactin-AF647, replicates
Procedure: as §3, §2

HEK293T cells = test: Flow cytometry, pre-complexed Siglec-Fc binding; assay type: cell-based; details: HEK; Strep-Tactin-AF647; replicates
Procedure: as §3, §2

HuH7 cells = test: Flow cytometry, pre-complexed Siglec-Fc binding; assay type: cell-based; details: Strep-Tactin-AF647, replicates
Procedure: as §3, §2

NK cells (CD56+) = test: Siglec ligands on peripheral blood immune cells, flow cytometry; assay type: cell-based, human; details: replicate values
Procedure: as §1, §2

T-cells (CD3+) = test: as above; assay type: cell-based, human; details: replicate values
Procedure: as §1, §2

neutrophils (CD15+) = test: as above; assay type: cell-based, human; details: replicate values
Procedure: as §1, §2

pDCs (CD123high/HLA-DR+) = test: as above; assay type: cell-based, human; details: pDC; replicate values
Procedure: as §1, §2

cDCs (CD123dim/HLA-DR+) = test: as above; assay type: cell-based, human; details: cDC; replicate values
Procedure: as §1, §2

B-cells (CD19+) = test: as above; assay type: cell-based, human; details: replicate values
Procedure: as §1, §2

U937 cells = test: Flow cytometry, Siglec-Fc pre-complexed with Strep-Tactin, streptavidin or anti-human IgG1; assay type: cell-based; details: U937; Strep-Tactin-AF647; replicates, Fig. 2
Procedure: as §3, §2

monocytes (CD14+) = test: Siglec ligands on peripheral blood immune cells, flow cytometry; assay type: cell-based, human; details: replicate values
Procedure: (§4) Siglec supernatant (50 μL) or purified Siglec was incubated with cells in a 96-well U-bottom plate for 30 min at 4 °C. Following the incubation, 200 μL of flow buffer (HBSS, 0.1% BSA, 5 mM EDTA) was added and the plate was spun down at 300 rcf for 5 min. Strep-Tactin-AF647 (0.55 μg/mL, 50 μL, 0.57 pmol), streptavidin (Biolegend), or anti-human IgG1 (Biolegend) was added to the cells and incubated for 30 min at 4 °C. After, 200 μL of flow buffer (HBSS, 0.1% BSA, 5 mM EDTA) was added and the plate was spun down at 300 rcf for 5 min. The cells were resuspended in 200 μL of flow buffer and processed through the flow cytometer.
as §3, §1, §2

basophils (CCR3+) = test: as above; assay type: cell-based, human; details: replicate values
Procedure: as §4, §3, §1, §2

eosinophils (Siglec-8+) = test: as above; assay type: cell-based, human; details: replicate values
Procedure: as §4, §3, §1, §2

MCF7 = test: Flow cytometry, pre-complexed Siglec-Fc binding to breast cancer cell line; assay type: cell-based; details: Strep-Tactin-AF647, replicates
Procedure: as §3, §2

T47D = test: as above; assay type: cell-based; details: Strep-Tactin-AF647, replicates
Procedure: as §3, §2

ZR-75-1 = test: as above; assay type: cell-based; details: Strep-Tactin-AF647, replicates
Procedure: as §3, §2

MDA-MB-231 = test: as above; assay type: cell-based; details: Strep-Tactin-AF647, replicates
Procedure: as §3, §2

HS578T = test: as above; assay type: cell-based; details: Strep-Tactin-AF647, replicates
Procedure: as §3, §2

MDA-MB-468 = test: as above; assay type: cell-based; details: Strep-Tactin-AF647, replicates
Procedure: as §3, §2

BT549 = test: as above; assay type: cell-based; details: Strep-Tactin-AF647, replicates
Procedure: as §3, §2

B1: Sig-3 R119A: CD33-Fc essential arginine mutant (protein, UniProt P20138 18-259, looked up, variant R119A)
extracellular domain: DPNFWLQVQESVTVQEGLCVLVPCTFFHPIPYYDKNSPVHGYWFREGAIISRDSPVATNKLDQEVQEETQGRFRLLGDPSRNNCSLSIVDARRRDNGSYFFAMERGSTKYSYKSPQLSVHVTDLTHRPKILIPGTLEPGHSKNLTCSVSWACEQGTPPIFSWLSAAPTSLGPRTTHSSVLIITPRPQDHGTNLTCQVKFAGAGVTTERTIQLNVTYVPQNPTTGIFPGDGSGKQETRAGVVH
modifications: extracellular domain fused to human IgG1 Fc
notes: CD33-Fc essential arginine mutant
Q: B1 was tested. Which “Binding, B-cells” value [1] did it give?
A: 24.9 and 27 and 31.3

Q: And the “Binding, NK” value [2]?
A: 16.9 and 14.2 and 13.6

Q: What about the “Binding, T-cells” value [3] of the same molecule?
A: 9.87 and 7.5 and 8.87

Q: And the “Binding, Monocytes” value [4]?
A: 22.5 and 51.6 and 43.8

Q: And the “Binding, Neutrophils” value [5]?
A: 20.7 and 30.4 and 24.9

Q: What about the “binding of pre-complexed Siglec-Fc (MFI)” value (A549 cells) of the same molecule?
A: 196 and 195 and 188

Q: What about the “binding of pre-complexed Siglec-Fc (MFI)” value (Jurkat cells) of the same molecule?
A: 101 and 105 and 109

Q: What about the “binding of pre-complexed Siglec-Fc (MFI)” value (K562 cells) of the same molecule?
A: 73.5 and 79.6 and 81.1

Q: And the “binding of pre-complexed Siglec-Fc (MFI)” value (HEK293T cells)?
A: 86.5 and 94.1 and 92.2

Q: What about the “binding of pre-complexed Siglec-Fc (MFI)” value (HuH7 cells) of the same molecule?
A: 85.3 and 88.8 and 87.9

Q: What about the “Siglec-Fc binding (Figure 3d)” value (NK cells (CD56+)) of the same molecule?
A: 3.81 and -14.1 and 12.8

Q: And the “Siglec-Fc binding (Figure 3d)” value (T-cells (CD3+))?
A: 11.6 and -14.1 and 8.98

Q: What about the “Siglec-Fc binding (Figure 3d)” value (neutrophils (CD15+)) of the same molecule?
A: 27 and -33.4 and 14.1

Q: And the “Siglec-Fc binding (Figure 3d)” value (pDCs (CD123high/HLA-DR+))?
A: 43.6 and 23.1 and 53.9

Q: And the “Siglec-Fc binding (Figure 3d)” value (cDCs (CD123dim/HLA-DR+))?
A: 28.2 and -2.85 and 34.7

Q: What about the “Siglec-Fc binding (Figure 3d)” value (B-cells (CD19+)) of the same molecule?
A: 147 and 5.13 and 27

Q: And the “binding of pre-complexed Siglec-Fc (MFI)” value (U937 cells)?
A: 103 and 139 and 125

Q: And the “Siglec-Fc binding (Figure 3d)” value (monocytes (CD14+))?
A: 74.5 and -10.3 and 64.2

Q: What about the “Siglec-Fc binding (Figure 3d)” value (basophils (CCR3+)) of the same molecule?
A: 73.2 and 10.3 and 39.8

Q: And the “Siglec-Fc binding (Figure 3d)” value (eosinophils (Siglec-8+))?
A: 15.4 and -50.1 and 11.6

Q: And the “binding of pre-complexed Siglec-Fc (MFI)” value (MCF7)?
A: 107 and 105 and 113

Q: And the “binding of pre-complexed Siglec-Fc (MFI)” value (T47D)?
A: 88.8 and 95.2 (2×)

Q: And the “binding of pre-complexed Siglec-Fc (MFI)” value (ZR-75-1)?
A: 212 and 223 and 240

Q: And the “binding of pre-complexed Siglec-Fc (MFI)” value (MDA-MB-231)?
A: 133 (2×) and 138

Q: And the “binding of pre-complexed Siglec-Fc (MFI)” value (HS578T)?
A: 127 (2×) and 130

Q: And the “binding of pre-complexed Siglec-Fc (MFI)” value (MDA-MB-468)?
A: 85.3 and 88 and 88.8

Q: What about the “binding of pre-complexed Siglec-Fc (MFI)” value (BT549) of the same molecule?
A: 140 and 148 and 151
